Biological target: recombinant human Prx4 (human) (UniProt Q13162)
Test: SPR; ProteOn XPR36; Ero1α (WT) or Prx4 amine-coupled to a GLC chip, PDI or ERp44 as analyte (0.444–36 μM); 25 °C; 20 mM HEPES-NaOH pH 7.4, 150 mM NaCl, 0.001% Tween, 2 mM EDTA; two-state model

Sequence of recombinant human PDI, P07237 18-508 (natural protein; other documents disagree on this pair) (P07237 18-508): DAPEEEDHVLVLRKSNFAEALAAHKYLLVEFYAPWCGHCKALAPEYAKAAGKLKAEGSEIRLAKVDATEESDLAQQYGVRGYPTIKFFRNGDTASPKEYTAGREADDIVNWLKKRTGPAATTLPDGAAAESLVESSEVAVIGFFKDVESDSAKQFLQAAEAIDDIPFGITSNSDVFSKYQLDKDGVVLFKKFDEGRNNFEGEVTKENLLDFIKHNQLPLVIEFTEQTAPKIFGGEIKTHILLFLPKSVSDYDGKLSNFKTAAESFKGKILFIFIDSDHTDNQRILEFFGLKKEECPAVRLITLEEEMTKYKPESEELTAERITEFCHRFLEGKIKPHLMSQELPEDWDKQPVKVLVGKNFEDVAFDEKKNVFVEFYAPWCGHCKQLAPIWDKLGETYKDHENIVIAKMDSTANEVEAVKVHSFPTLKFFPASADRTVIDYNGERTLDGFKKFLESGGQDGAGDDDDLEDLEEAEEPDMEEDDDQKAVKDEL
Sequence of recombinant human Prx4 (human) (Q13162 38-271): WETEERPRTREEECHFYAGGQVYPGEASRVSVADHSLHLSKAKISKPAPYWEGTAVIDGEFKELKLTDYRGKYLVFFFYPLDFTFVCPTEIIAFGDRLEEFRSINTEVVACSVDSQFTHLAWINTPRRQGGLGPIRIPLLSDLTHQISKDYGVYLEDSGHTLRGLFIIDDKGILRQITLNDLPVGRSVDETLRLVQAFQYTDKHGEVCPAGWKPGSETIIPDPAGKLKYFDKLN

recombinant human PDI, P07237 18-508 (natural protein; other documents disagree on this pair)
Kd: 10.6 µM

Reference: publication PMC3795256
